Measurements taken from patent US20160291016.

Target: T1, phosphatidylinositol(4) phosphate 5 kinase type 1 gamma (PIPK1γ) of mouse osteoblasts, O70161
T1 chain: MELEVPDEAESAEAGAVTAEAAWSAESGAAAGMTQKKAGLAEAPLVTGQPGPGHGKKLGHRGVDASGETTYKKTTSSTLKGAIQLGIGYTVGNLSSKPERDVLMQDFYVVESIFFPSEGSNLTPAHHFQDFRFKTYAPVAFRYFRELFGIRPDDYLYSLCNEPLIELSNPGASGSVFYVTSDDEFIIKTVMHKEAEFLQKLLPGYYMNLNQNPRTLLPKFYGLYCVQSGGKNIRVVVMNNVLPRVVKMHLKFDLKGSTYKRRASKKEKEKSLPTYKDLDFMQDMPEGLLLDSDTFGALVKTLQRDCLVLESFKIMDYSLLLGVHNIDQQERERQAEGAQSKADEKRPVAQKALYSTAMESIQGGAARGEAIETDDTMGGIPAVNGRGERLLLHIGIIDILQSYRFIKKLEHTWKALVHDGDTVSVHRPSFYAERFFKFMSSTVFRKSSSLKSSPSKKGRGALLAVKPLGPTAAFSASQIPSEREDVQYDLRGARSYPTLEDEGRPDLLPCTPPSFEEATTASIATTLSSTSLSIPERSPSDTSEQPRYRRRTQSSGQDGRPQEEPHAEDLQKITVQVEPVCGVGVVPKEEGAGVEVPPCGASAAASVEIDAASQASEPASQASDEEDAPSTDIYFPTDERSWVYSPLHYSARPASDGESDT

B1: protein tyrosine phosphatase µ (PTPµ) of mouse osteoblasts (protein)
chain: ETFSGGCLFDEPYSTCGYSQADEDDFNWEQVNTLTKPTSDPWMPSGSFMLVNTSGKPEGQRAHLLLPQLKENDTHCIDFHYFVSSKSNAAPGLLNVYVKVNNGPLGNPIWNISGDPTRTWHRAELAISTFWPNFYQVIFEVVTSGHQGYLAIDEVKVLGHPCTRTPHFLRIQNVEVNAGQFATFQCSAIGRTVAGDRLWLQGIDVRDAPLKEIKVTSSRRFIASFNVVNTTKRDAGKYRCMICTEGGVGISNYAELVVKEPPVPIAPPQLASVGATYLWIQLNANSINGDGPIVAREVEYCTASGSWNDRQPVDSTSYKIGHLDPDTEYEISVLLTRPGEGGTGSPGPALRTRTKCADPMRGPRKLEVVEVKSRQITIRWEPFGYNVTRCHSYNLTVHYGYQVGGQEQVREEVSWDTDNSHPQHTITNLSPYTNVSVKLILMNPEGRKESQELTVQTDEDLPGAVPTESIQGSAFEEKIFLQWREPTQTYGVITLYEITYKAVSSFDPEIDLSNQSGRVSKLGNETHFLFFGLYPGTTYSFTIRASTAKGFGPPATNQFTTKISAPSMPAYEFETPLNQTDNTVTVMLKPAQSRGAPVSVYQIVVEEERPRRTKKTTEILKCYPVPIHFQNASILNSQYYFAAEFPADSLQAAQPFTIGDNKTYNGYWNTPLLPHKSYRIYYQAASRANGETKIDCVRVATKGAVTPKPVPEPEKQTDHTVKIAGVIAGILLFVIIFLGVVLVMKKRKLAKKRKETMSSTRQEMTVMVNSMDKSYAEQGTNCDEAFSFMGTHNLNGRSVSSPSSFTMKTNTLSTSVPNSYYPDETHTMASDTSSLAQPHTYKKREAADVPYQTGQLHPAIRVADLLQHITQMKCAEGYGFKEEYESFFEGQSAPWDSAKKDENRMKNRYGNIIAYDHSRVRLQMLEGDNNSDYINGNYIDGYHRPNHYIATQGPMQETIYDFWRMVWHENTASIIMVTNLVEVGRVKCCKYWPDDTEIYKDIKVTLIDTELLAEYVIRTFAVEKRGIHEIREIRQFHFTGWPDHGVPYHATGLLGFVRQVKSKSPPNAGPLVVHCSAGAGRTGCFIVIDIMLDMAEREGVVDIYNCVRELRSRRVNMVQTEEQYVFIHDAILEACLCGDTSIPASQVRSLYYDMNKLDPQTNSSQIKEEFRTLNMVTPTLRVEDCSIALLPRNHEKNRCMDILPPDRCLPFLITIDGESSNYINAALMDSYKQPSAFIVTQHPLPNTVKDFWRLVLDYHCTSVVMLNDVDPAQLCPQYWPENGVHRHGPIQVEFVSADLEEDIISRIFRIYNASRPQDGHRMVQQFQFLGWPMYRDTPVSKRSFLKLIRQVDKWQEEYNGGEGRTVVHCLNGGGRSGTFCAISIVCEMLRHQRTVDVFHAVKTLRNNKPNMVDLLDQYKFCYEVALEYLNSG
- tyrosine phosphorylation of PIPK1γ (immunoprecipitation with PIPK1γ antibody, blot with phospho-tyrosine antibody): Phosphorylation levels of PIPK1γ were higher in osteoblasts from PTPµ^-/- than in those from WT mice
